Reference: publication PMC4245848, “The Aspergillus nidulans Zn(II)2Cys6 transcription factor AN5673/RhaR mediates L-rhamnose utilization and the production of α-L-rhamnosidases”
Where a chain is given by its changes, count along the chain named.

T1: His6::RhaR (1-159*) (Aspergillus nidulans (cDNA from strain AR198)) (UniProt A0A0A1I536)
T1 sequence: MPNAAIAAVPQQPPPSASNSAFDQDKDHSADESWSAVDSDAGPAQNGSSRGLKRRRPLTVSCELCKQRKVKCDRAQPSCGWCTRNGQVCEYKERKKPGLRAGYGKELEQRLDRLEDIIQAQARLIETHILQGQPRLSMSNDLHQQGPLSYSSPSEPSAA

T2: His6::RhaR (1-159*) (Aspergillus nidulans (cDNA from strain …, UniProt A0A0A1I536))
T2 sequence: T1 sequence

B1: 35-mer wild type (dsDNA)
DNA 1: AGATCTTCTCGGGGGAAGATCGACCGACCTGGTCC
DNA 2: GGACCAGGTCGGTCGATCTTCCCCCGAGAAGATCT
B2: 35-mer mut1 mut2 (dsDNA)
DNA 1: B1 DNA 1 with G11T, C25A
DNA 2: B1 DNA 2 with G11T, C25A

Assays:
[1] = target: T1, His6::RhaR (1-159*) (Aspergillus nidulans (cDNA from strain AR198)); assay: EMSA; conditions: 25 mM HEPES pH 7.9, 50 mM KCl, 5 mM MgCl2, 1 mM DTT, 0.1 mM EDTA, 1 ug salmon sperm DNA, 20 ul, 4 C 30 min; 5-8% native PAGE in 0.5x TBE at 4 C, ethidium …
His6::RhaR (1-159*) = target: T2, His6::RhaR (1-159*); assay: EMSA; 25 mM HEPES pH 7.9, 50 mM KCl, 5 mM MgCl2, 1 mM DTT, 0.1 mM EDTA, 1 ug salmon sperm DNA, 20 ul, 4 C 30 min; 5-8% native PAGE in 0.5x TBE at 4 C, ethidium bromide; conditions: protein: recombinant; tags: N-terminal His6 (pQE-80L); chain copies: 2; blunt

Molecule	binding [1]	binding result (His6::RhaR (1-159*))
AGATCTTCTCTGGGGAAGATCGACCGACCTGGTCCTGCAGAGCTCCAAGGCTTCCTCTCAGAAAGCCGATTAGTAGAAGCGGAGTCAAAGCAGGGTCAAGACGGACAATTAGAAGCCATGAATGGCGGATCCCAGCCCATGATCGCATACTGTGATCCAAAATCGACATAACTAAGTCACTTCCCTTCGCTTGTATCTGCCCAGCCATCCAACAACTCTA (double strand) [rhaAp 219 bp mut1]	binds more weakly	
B1		binds
B2		no binding
